The series relates to Escherichia coli TOP10. The experiment in a line: shrunken log2 fold change of peptide-encoding DNA abundance (4.5 h post-induction vs induction); higher = less antimicrobial activity (less host growth inhibition). Conditions: time post-induction: 4.5 h; library: site-saturation at positions 5, 18, 19, 20.

This note sets out measurements from the supplement of paper PMC9112550, “Optimization of the antimicrobial peptide Bac7 by deep mutational scanning” (BMC Biology, 2022).
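Also: peptides expressed intracellularly from a pBAD plasmid library in pooled LB shake-flask culture, induced with 0.3% L-arabinose, DNA abundance read by NGS, three biological replicates, DESeq2 with apeglm shrinkage.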

Regarding RRIRWRPPRLPRPRPRPGYWPRP, the “shrunken log2 fold change” value was -0.00394.

Turning to RRIRRRPPRLPRPRPRPWMLPRP, the “shrunken log2 fold change” value stood at 0.227.

Consider RRIRERPPRLPRPRPRPNSMPRP, for which the “shrunken log2 fold change” value is -0.864.

As to RRIRDRPPRLPRPRPRPCLSPRP, the “shrunken log2 fold change” value was found to be 0.000319.

For the sequence RRIRARPPRLPRPRPRPALWPRP, the “shrunken log2 fold change” value was 0.833.

As for RRIRSRPPRLPRPRPRPDHSPRP, the “shrunken log2 fold change” value is -0.096.

Regarding RRIRHRPPRLPRPRPRPCYVPRP, the “shrunken log2 fold change” value was -1.53.

With RRIRKRPPRLPRPRPRPLTHPRP, the “shrunken log2 fold change” value amounted to 0.0737.

Consider RRIRTRPPRLPRPRPRPKVQPRP, for which the “shrunken log2 fold change” value was -0.0279.

For the sequence RRIRNRPPRLPRPRPRPEFTPRP, the “shrunken log2 fold change” value is -0.161.

For RRIRFRPPRLPRPRPRPHVYPRP, the “shrunken log2 fold change” value was -0.0438.

For the sequence RRIRMRPPRLPRPRPRPAAGPRP, the “shrunken log2 fold change” value turned out to be 1.56.

With RRIRIRPPRLPRPRPRPWPRPRP, the “shrunken log2 fold change” value came out at 0.277.

As to RRIRIRPPRLPRPRPRPRKWPRP, the “shrunken log2 fold change” value amounted to 0.0966.

As to RRIRARPPRLPRPRPRPWAQPRP, the “shrunken log2 fold change” value was found to be 0.0167.

RRIRCRPPRLPRPRPRPADLPRP: the “shrunken log2 fold change” value was -0.24.

Turning to RRIRLRPPRLPRPRPRPVIQPRP, the “shrunken log2 fold change” value was -0.0903.

Consider RRIRNRPPRLPRPRPRPGPDPRP, for which the “shrunken log2 fold change” value was 0.295.

For RRIRFRPPRLPRPRPRPHDIPRP, the “shrunken log2 fold change” value was -0.0788.

For RRIRKRPPRLPRPRPRPQFIPRP, the “shrunken log2 fold change” value was -0.0823.

As to RRIRNRPPRLPRPRPRPIGRPRP, the “shrunken log2 fold change” value is -0.0141.

Turning to RRIRERPPRLPRPRPRPGSWPRP, the “shrunken log2 fold change” value stood at 2.45.

Consider RRIRVRPPRLPRPRPRPDNYPRP, for which the “shrunken log2 fold change” value is -0.222.

Regarding RRIRGRPPRLPRPRPRPWFFPRP, the “shrunken log2 fold change” value worked out at 0.169.

As for RRIRDRPPRLPRPRPRPPVTPRP, the “shrunken log2 fold change” value is -0.0696.

Regarding RRIRNRPPRLPRPRPRPCMIPRP, the “shrunken log2 fold change” value was -0.143.

Consider RRIRYRPPRLPRPRPRPNHAPRP, for which the “shrunken log2 fold change” value is -0.142.

RRIRRRPPRLPRPRPRPNGEPRP: the “shrunken log2 fold change” value was determined as 0.43.

Take RRIRSRPPRLPRPRPRPHGGPRP: the “shrunken log2 fold change” value is 0.103.

Consider RRIRFRPPRLPRPRPRPEIEPRP, for which the “shrunken log2 fold change” value turned out to be 0.0594.

Turning to RRIRCRPPRLPRPRPRPETEPRP, the “shrunken log2 fold change” value is -0.0921.

For RRIRKRPPRLPRPRPRPYDHPRP, the “shrunken log2 fold change” value is -0.084.

Turning to RRIRARPPRLPRPRPRPYEKPRP, the “shrunken log2 fold change” value was -0.201.

With RRIRQRPPRLPRPRPRPVYWPRP, the “shrunken log2 fold change” value was determined as 0.0694.

As for RRIRDRPPRLPRPRPRPEVVPRP, the “shrunken log2 fold change” value is -0.00213.

Take RRIRMRPPRLPRPRPRPLLYPRP: the “shrunken log2 fold change” value was 0.0402.

RRIRQRPPRLPRPRPRPQCGPRP: the “shrunken log2 fold change” value was -0.133.

Regarding RRIRVRPPRLPRPRPRPMVKPRP, the “shrunken log2 fold change” value was -0.166.

With RRIRIRPPRLPRPRPRPVQVPRP, the “shrunken log2 fold change” value was -0.0757.

As for RRIRHRPPRLPRPRPRPRYCPRP, the “shrunken log2 fold change” value is -0.293.

Regarding RRIRTRPPRLPRPRPRPMLWPRP, the “shrunken log2 fold change” value worked out at 0.143.

On to RRIRQRPPRLPRPRPRPFRVPRP, for which the “shrunken log2 fold change” value was -0.153.

RRIRTRPPRLPRPRPRPHGKPRP: the “shrunken log2 fold change” value is -0.209.

Regarding RRIRVRPPRLPRPRPRPTHFPRP, the “shrunken log2 fold change” value is -0.266.

Turning to RRIRTRPPRLPRPRPRPTNVPRP, the “shrunken log2 fold change” value was found to be 0.118.

For the sequence RRIRGRPPRLPRPRPRPEGDPRP, the “shrunken log2 fold change” value was determined as 1.94.

With RRIRNRPPRLPRPRPRPVQRPRP, the “shrunken log2 fold change” value was -0.186.

For the sequence RRIRCRPPRLPRPRPRPKEKPRP, the “shrunken log2 fold change” value was 0.00563.

With RRIRKRPPRLPRPRPRPHMRPRP, the “shrunken log2 fold change” value stood at 0.0568.

On to RRIRNRPPRLPRPRPRPFPVPRP, for which the “shrunken log2 fold change” value is -0.125.

In the case of RRIRVRPPRLPRPRPRPDTYPRP, the “shrunken log2 fold change” value is -0.995.

Consider RRIRVRPPRLPRPRPRPSFYPRP, for which the “shrunken log2 fold change” value was -0.872.

For RRIRHRPPRLPRPRPRPIFHPRP, the “shrunken log2 fold change” value was -0.155.

On to RRIRRRPPRLPRPRPRPRTDPRP, for which the “shrunken log2 fold change” value is 0.438.

As for RRIRTRPPRLPRPRPRPWWLPRP, the “shrunken log2 fold change” value amounted to 0.125.

Consider RRIRLRPPRLPRPRPRPVVSPRP, for which the “shrunken log2 fold change” value was -0.054.

RRIRMRPPRLPRPRPRPFLVPRP: the “shrunken log2 fold change” value is -0.0501.

Turning to RRIRHRPPRLPRPRPRPLWHPRP, the “shrunken log2 fold change” value was -0.138.

For the sequence RRIRRRPPRLPRPRPRPIHSPRP, the “shrunken log2 fold change” value was 0.0881.

With RRIRPRPPRLPRPRPRPEQRPRP, the “shrunken log2 fold change” value turned out to be 0.124.

Regarding RRIRARPPRLPRPRPRPPLLPRP, the “shrunken log2 fold change” value was determined as 0.543.

For RRIRMRPPRLPRPRPRPMFIPRP, the “shrunken log2 fold change” value was -0.403.

In the case of RRIRHRPPRLPRPRPRPKWFPRP, the “shrunken log2 fold change” value was -0.233.

Regarding RRIRCRPPRLPRPRPRPFSMPRP, the “shrunken log2 fold change” value was -0.107.

On to RRIRWRPPRLPRPRPRPWLIPRP, for which the “shrunken log2 fold change” value stood at 0.112.

As to RRIRSRPPRLPRPRPRPQTFPRP, the “shrunken log2 fold change” value is -0.136.

In the case of RRIRIRPPRLPRPRPRPDYKPRP, the “shrunken log2 fold change” value was -0.231.

For the sequence RRIRFRPPRLPRPRPRPDQSPRP, the “shrunken log2 fold change” value is 0.0148.

In the case of RRIRWRPPRLPRPRPRPDQDPRP, the “shrunken log2 fold change” value is -0.0971.

With RRIRIRPPRLPRPRPRPMQEPRP, the “shrunken log2 fold change” value is -0.2.

For RRIRARPPRLPRPRPRPRIAPRP, the “shrunken log2 fold change” value was determined as 0.631.

For the sequence RRIRMRPPRLPRPRPRPMGMPRP, the “shrunken log2 fold change” value is -0.103.

In the case of RRIRERPPRLPRPRPRPGVTPRP, the “shrunken log2 fold change” value turned out to be 0.00546.

On to RRIRIRPPRLPRPRPRPVPDPRP, for which the “shrunken log2 fold change” value was -0.0498.

As for RRIRTRPPRLPRPRPRPKCGPRP, the “shrunken log2 fold change” value is -0.0177.

On to RRIRLRPPRLPRPRPRPAETPRP, for which the “shrunken log2 fold change” value was determined as 0.0382.

With RRIRKRPPRLPRPRPRPIHTPRP, the “shrunken log2 fold change” value was 0.101.

Consider RRIRRRPPRLPRPRPRPFTRPRP, for which the “shrunken log2 fold change” value was -0.0292.

RRIRFRPPRLPRPRPRPERKPRP: the “shrunken log2 fold change” value stood at 0.0154.

On to RRIRQRPPRLPRPRPRPIDRPRP, for which the “shrunken log2 fold change” value amounted to 0.118.

For the sequence RRIRWRPPRLPRPRPRPCFYPRP, the “shrunken log2 fold change” value is -0.249.

In the case of RRIRWRPPRLPRPRPRPCEVPRP, the “shrunken log2 fold change” value is -0.00149.

Take RRIRDRPPRLPRPRPRPVSTPRP: the “shrunken log2 fold change” value was 0.0725.

Take RRIRWRPPRLPRPRPRPQHRPRP: the “shrunken log2 fold change” value was 0.25.

With RRIRFRPPRLPRPRPRPQFVPRP, the “shrunken log2 fold change” value was -0.434.

For RRIRPRPPRLPRPRPRPPCFPRP, the “shrunken log2 fold change” value turned out to be 0.307.

RRIRARPPRLPRPRPRPILSPRP: the “shrunken log2 fold change” value came out at 0.376.

For the sequence RRIRKRPPRLPRPRPRPVKTPRP, the “shrunken log2 fold change” value amounted to 0.141.

Turning to RRIRPRPPRLPRPRPRPIAEPRP, the “shrunken log2 fold change” value was -0.0633.

In the case of RRIRPRPPRLPRPRPRPSHCPRP, the “shrunken log2 fold change” value is -0.666.

For RRIRFRPPRLPRPRPRPSKIPRP, the “shrunken log2 fold change” value was 0.903.
